Data as given in patent US20030199671A1, “Binding molecules for Fc-region polypeptides” (priority 2001, published 2003).
Read-outs that look alike come from different tables or passages of the source.

Legend:
Type in all cases: binding
IgG4 = IgG4 (Homo sapiens, UniProt P01861); design: all human subtypes derived from myeloma patients; purchased Calbiochem 400126; host or cells: myeloma patients
Procedure, shortened: (§1)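 Read-out is A280 of unbound IgG (1.4 mg/ml extinction coefficient), with percent bound derived against non-filtered or negative controls. Targets were incubated with immobilized peptides in PBST or TBST for 1-1.5 h at room temperature. Hydrolyzed Sepharose and immobilized Protein A serve as negative and positive controls.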

mouse IgG = tested on: mouse IgG
Procedure, shortened: (§2)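 Steps: dilute IgG in PBST or TBST; incubate with immobilized peptide 1-1.5 h, RT; collect unbound by centrifugation; measure A280; wash three times; elute with 0.1 M sodium bicarbonate pH 8.5 and/or 0.1 M sodium citrate pH 4.0 for 30-60 min and quantitate.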

human IgG2 = target: T1, human IgG2 (Homo sapiens, UniProt P01859)
T1 construct: all human subtypes derived from myeloma patients; purchased Calbiochem 400122; host or cells: myeloma patients
T1 sequence (P01859 1-326 isoform P01859-1): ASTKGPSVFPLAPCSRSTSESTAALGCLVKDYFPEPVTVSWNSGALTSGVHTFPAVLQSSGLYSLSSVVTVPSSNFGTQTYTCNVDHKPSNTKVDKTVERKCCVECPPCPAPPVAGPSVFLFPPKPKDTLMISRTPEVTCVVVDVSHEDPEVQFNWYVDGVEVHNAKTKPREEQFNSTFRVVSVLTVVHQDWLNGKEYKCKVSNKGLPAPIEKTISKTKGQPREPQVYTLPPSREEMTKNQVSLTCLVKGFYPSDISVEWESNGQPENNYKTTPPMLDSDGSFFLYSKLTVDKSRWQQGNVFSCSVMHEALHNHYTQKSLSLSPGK
Procedure, shortened: as §1

human IgG1 = target: T2, human IgG1 (Homo sapiens, UniProt P01857)
T2 construct: all human subtypes derived from myeloma patients; purchased Calbiochem 400120; host or cells: myeloma patients
T2 sequence (P01857 1-330 isoform P01857-1): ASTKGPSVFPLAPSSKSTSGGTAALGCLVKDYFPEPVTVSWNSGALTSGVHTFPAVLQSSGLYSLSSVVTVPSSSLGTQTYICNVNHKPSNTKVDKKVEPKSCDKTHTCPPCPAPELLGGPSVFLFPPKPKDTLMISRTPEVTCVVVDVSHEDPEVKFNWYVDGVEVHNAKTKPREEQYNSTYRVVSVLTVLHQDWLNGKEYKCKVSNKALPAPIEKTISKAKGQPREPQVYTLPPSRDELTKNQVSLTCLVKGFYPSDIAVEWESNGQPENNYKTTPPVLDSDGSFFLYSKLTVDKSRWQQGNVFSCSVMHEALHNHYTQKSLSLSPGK
Procedure, shortened: as §1

goat IgG = tested on: goat IgG
Procedure, shortened: as §2

human IgG = tested on: human IgG
Procedure, shortened: as §2

bovine IgG = tested on: bovine IgG
Procedure, shortened: as §2

IgG3 = IgG3 (Homo sapiens, UniProt P01860); design: all human subtypes derived from myeloma patients; purchased Calbiochem 400124; host or cells: myeloma patients
IgG3, sequence (P01860 1-377 isoform P01860-1): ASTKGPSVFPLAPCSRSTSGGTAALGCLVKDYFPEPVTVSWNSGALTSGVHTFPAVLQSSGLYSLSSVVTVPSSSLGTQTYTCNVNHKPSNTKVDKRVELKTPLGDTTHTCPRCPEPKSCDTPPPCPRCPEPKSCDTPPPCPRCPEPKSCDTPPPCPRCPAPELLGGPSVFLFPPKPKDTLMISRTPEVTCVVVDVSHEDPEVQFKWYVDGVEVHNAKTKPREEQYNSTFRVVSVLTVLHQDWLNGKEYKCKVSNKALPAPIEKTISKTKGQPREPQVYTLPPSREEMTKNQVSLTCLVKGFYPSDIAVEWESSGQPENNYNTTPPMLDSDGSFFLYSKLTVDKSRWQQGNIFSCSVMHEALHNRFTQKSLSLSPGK
Procedure, shortened: as §1

[1] = Table 9, immobilized peptide, 5.0 mg/ml resin load
[2] = Table 10, elution 0.1 M sodium bicarbonate buffer, pH 8.5
[3] = Table 10, elution 0.1 M sodium citrate buffer, pH 4.0
[4] = Table 13, average ligand density 1.8 μM/ml
[5] = Table 14, average ligand density 1.8 μM/ml

IgG4, sequence (P01861 1-327 isoform P01861-1): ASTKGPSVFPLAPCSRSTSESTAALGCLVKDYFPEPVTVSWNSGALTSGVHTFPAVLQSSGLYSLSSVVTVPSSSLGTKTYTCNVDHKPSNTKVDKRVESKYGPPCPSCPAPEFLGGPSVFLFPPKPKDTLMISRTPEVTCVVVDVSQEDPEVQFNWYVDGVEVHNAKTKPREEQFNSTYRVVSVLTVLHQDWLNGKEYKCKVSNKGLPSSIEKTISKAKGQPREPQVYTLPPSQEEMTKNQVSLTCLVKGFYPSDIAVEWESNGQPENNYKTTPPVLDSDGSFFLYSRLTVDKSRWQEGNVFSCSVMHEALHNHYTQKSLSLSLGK

Substance: Prot. A: immobilized recombinant Protein A (RepliGen Corp., product no. IPA-400), positive control [reference compound]
- % IgG Capture - Batch Binding, Human IgG4 (IgG4; [1]): 96%
- Human IgG4 bdg % (% of Total Load) (IgG4; Table 10, batch binding): 92%
- Human IgG4 elu pH 8.5 (% of Total Load) (IgG4; [2]): 2%
- Human IgG4 elu pH 4.0 (% of Total Load) (IgG4; [3]): 95%
- hIgG4 elution pH 2.5 (% of Total Load) (IgG4; Table 13): 70%
- hIgG4 elution pH 3.0 (% of Total Load) (IgG4; Table 13): 77%
- hIgG4 elution pH 3.5 (% of Total Load) (IgG4; Table 13): 87%
- hIgG4 elution pH 4.5 (% of Total Load) (IgG4; Table 13): 27%
- hIgG4 elution pH 5.5 (% of Total Load) (IgG4; Table 13): 6%
- hIgG4 elution pH 9.0 (% of Total Load) (IgG4; Table 13): 7%
- hIgG4 elution pH 9.5 (% of Total Load) (IgG4; Table 13): 8%
- hIgG4 Bound (% of Total Load) (IgG4; [4]): 89%
- % IgG Capture - Batch Binding, Mouse IgG (mouse IgG; Table 11, unfractionated IgG): 77%
- % IgG Capture - Batch Binding, Mouse IgG (mouse IgG; [5]): 69%
- % IgG Capture - Batch Binding, Human IgG2 (human IgG2; [1]): 92%
- Human IgG2 bdg % (% of Total Load) (human IgG2; Table 10, batch binding): 93%
- Human IgG2 elu pH 8.5 (% of Total Load) (human IgG2; [2]): 8%
- Human IgG2 elu pH 4.0 (% of Total Load) (human IgG2; [3]): 75%
- hIgG2 elution pH 2.5 (% of Total Load) (human IgG2; Table 13): 75%
- hIgG2 elution pH 3.0 (% of Total Load) (human IgG2; Table 13): 75%
- hIgG2 elution pH 3.5 (% of Total Load) (human IgG2; Table 13): 76%
- hIgG2 elution pH 4.5 (% of Total Load) (human IgG2; Table 13): 65%
- hIgG2 elution pH 5.5 (% of Total Load) (human IgG2; Table 13): 22%
- hIgG2 elution pH 9.0 (% of Total Load) (human IgG2; Table 13): 13%
- hIgG2 elution pH 9.5 (% of Total Load) (human IgG2; Table 13): 18%
- hIgG2 Bound (% of Total Load) (human IgG2; [4]): 85%
- % IgG Capture - Batch Binding, Human IgG1 (human IgG1; [1]): 95%
- Human IgG1 bdg % (% of Total Load) (human IgG1; Table 10, batch binding): 93%
- Human IgG1 elu pH 8.5 (% of Total Load) (human IgG1; [2]): 2%
- Human IgG1 elu pH 4.0 (% of Total Load) (human IgG1; [3]): 79%
- hIgG1 elution pH 2.5 (% of Total Load) (human IgG1; Table 13): 80%
- hIgG1 elution pH 3.0 (% of Total Load) (human IgG1; Table 13): 80%
- hIgG1 elution pH 3.5 (% of Total Load) (human IgG1; Table 13): 86%
- hIgG1 elution pH 4.5 (% of Total Load) (human IgG1; Table 13): 29%
- hIgG1 elution pH 5.5 (% of Total Load) (human IgG1; Table 13): 3%
- hIgG1 elution pH 9.0 (% of Total Load) (human IgG1; Table 13): 3%
- hIgG1 elution pH 9.5 (% of Total Load) (human IgG1; Table 13): 3%
- hIgG1 Bound (% of Total Load) (human IgG1; [4]): 96%
- % IgG Capture - Batch Binding, Goat IgG (goat IgG; Table 11, unfractionated IgG): 23%
- % IgG Capture - Batch Binding, Goat IgG (goat IgG; [5]): 20%
- % IgG Capture - Batch Binding, Human IgG (human IgG; Table 11, unfractionated IgG): 86%
- % IgG Capture - Batch Binding, Human IgG (human IgG; [5]): 81%
- % IgG Capture - Batch Binding, Bovine IgG (bovine IgG; Table 11, unfractionated IgG): 72%
- % IgG Capture - Batch Binding, Bovine IgG (bovine IgG; [5]): 60%
- % IgG Capture - Batch Binding, Human IgG3 (IgG3; [1]): 1%
- Human IgG3 bdg % (% of Total Load) (IgG3; Table 10, batch binding): 5%
- Human IgG3 elu pH 8.5 (% of Total Load) (IgG3; [2]): 0%
- Human IgG3 elu pH 4.0 (% of Total Load) (IgG3; [3]): 0%
- hIgG3 elution pH 2.5 (% of Total Load) (IgG3; Table 13): 0%
- hIgG3 elution pH 3.0 (% of Total Load) (IgG3; Table 13): 0%
- hIgG3 elution pH 3.5 (% of Total Load) (IgG3; Table 13): 0%
- hIgG3 elution pH 4.5 (% of Total Load) (IgG3; Table 13): 0%
- hIgG3 elution pH 5.5 (% of Total Load) (IgG3; Table 13): 0%
- hIgG3 elution pH 9.0 (% of Total Load) (IgG3; Table 13): 0%
- hIgG3 elution pH 9.5 (% of Total Load) (IgG3; Table 13): 0%
- hIgG3 Bound (% of Total Load) (IgG3; [4]): 0%
